Experimental findings from US20080220459A1 are described below.

The assay has as its target NC4-antiserum (rabbit polyclonal antiserum against the collagen alpha1 (IX) NC4-peptide coupled to KLH). In words: inhibition ELISA: free NC4-peptide against binding of NC4-antiserum to solid-phase NC4-peptide. (In general: ELISA stands for enzyme-linked immunosorbent assay.)

Molecule H-CGQDDLPGFDLISQFQ-NH2 [NC4-peptide NH2-…^64-CONH2] came in with a peptide concentration showing efficient inhibition of the binding of 0.3 ng/mL.
